Substitutions are numbered along the chain they refer to.
Legend:
Assay in all cases: native gel or EMSA
[1] = molecular target: T1, PhoEF-2 M167S (Pyrococcus horikoshii, UniProt O59521 1-732, M167S)
T1 sequence (looked up): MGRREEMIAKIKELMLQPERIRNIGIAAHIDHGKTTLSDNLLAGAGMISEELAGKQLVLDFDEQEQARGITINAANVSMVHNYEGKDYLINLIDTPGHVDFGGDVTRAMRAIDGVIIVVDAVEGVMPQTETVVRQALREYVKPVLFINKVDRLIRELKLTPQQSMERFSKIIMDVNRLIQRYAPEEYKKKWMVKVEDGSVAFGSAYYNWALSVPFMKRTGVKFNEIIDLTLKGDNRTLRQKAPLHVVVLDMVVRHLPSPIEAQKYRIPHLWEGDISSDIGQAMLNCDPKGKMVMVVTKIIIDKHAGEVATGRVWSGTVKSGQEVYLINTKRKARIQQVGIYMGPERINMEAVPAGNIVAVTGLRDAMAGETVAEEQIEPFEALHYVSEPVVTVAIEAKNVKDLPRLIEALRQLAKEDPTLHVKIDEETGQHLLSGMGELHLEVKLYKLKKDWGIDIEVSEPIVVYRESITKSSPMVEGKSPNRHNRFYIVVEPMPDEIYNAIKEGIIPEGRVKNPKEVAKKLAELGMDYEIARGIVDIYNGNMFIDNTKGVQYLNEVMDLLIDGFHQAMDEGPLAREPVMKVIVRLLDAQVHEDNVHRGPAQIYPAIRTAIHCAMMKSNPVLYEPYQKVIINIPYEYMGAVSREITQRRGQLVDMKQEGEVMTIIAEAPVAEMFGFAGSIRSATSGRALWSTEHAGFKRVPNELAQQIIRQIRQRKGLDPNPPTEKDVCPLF

[2] = molecular target: T2, PhoEF-2 M219S (Pyrococcus horikoshii, UniProt O59521 1-732, M219S)
T2 sequence (looked up): T1 sequence (looked up) with S164M, M216S

[3] = molecular target: T3, Pyrococcus horikoshii elongation factor 2 (PhoEF-2), wild type (Pyrococcus horikoshii, UniProt O59521 1-732)
T3 sequence (looked up): T1 sequence (looked up) with S164M

Measured: binding result

B1: Pyrococcus horikoshii ribosomal stalk protein P1 (natural protein, UniProt O57705 1-108, looked up)
chain: MEYVYAALLLHSVGKEINEENLKAVLQAAGVEPEEARIKALVAALEGVNIDEVIEKAAMPVAVAAAPAAAPAEAGGEEKKEEEKKEEEEKEEEVSEEEALAGLSALFG
modifications: in the SPR only: biotin on amino groups via a PEG linker (EZ-Link NHS-PEG4-Biotin)
binds: all assays above

Reference: PMC5887453 (Nucleic Acids Research, 2018)
